Laboratory results as given in the supplement of paper PMC11811203.

B1: THAP1; numbered along this chain (parent)
chain: MVQSCSAYGCKNRYDKDKPVSFHKFPLTRPSLCKEWEAAVRRKNFKPTKYSSICSEHFTPDCFKRECNNKLLKENAVPTIFLCTEPHDKKEDLLEPQEQLPPPPLPPPVSQVDAAIGLLMPPLQTPVNLSVFCDHNYTVEDTMHQRKRIHQLEQQVEKLRKKLKTAQQRCRRQERQLEKLKEVVHFQKEKDDVSERGYVILPNDYFEIVEVPA

Variants of: B1
Assay: THAP1 transcriptional activity (GFP+/GFP- enrichment relative to wild-type constructs) (ratio to WT); higher = more THAP1 activity (PSMB5 reporter activation)
Details: with PSMB5 promoter-GFP reporter
Experimental: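 Deep mutational scan of human THAP1. Site-saturation single amino acid variant library (residues 2-213) was expressed by lentivirus at MOI ~0.3 in THAP1-knockout HEK-293T cells carrying an endogenous PSMB5 promoter-GFP knock-in reporter. Five days post-transduction, BFP+ cells were FACS-sorted into GFP dim and GFP bright populations and variants were counted by Illumina sequencing. Activity is the GFP-bright/GFP-dim read fold change, mean of 2 replicates, divided by the mean fold change of wild-type (synonymous) constructs in the same screen pool; WT = 1.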

Going from E66C to E66T, the THAP1 transcriptional activity rises from 1.21 to 1.3.

Going from E66N to Q176R, the THAP1 transcriptional activity falls from 2.46 to 1.1.

Going from S110Q to S110C, the THAP1 transcriptional activity falls from 0.788 to 0.567.

Compared with S110K, L93F is lower in THAP1 transcriptional activity: 1.31 for the first, 0.989 for the second.

Compared with P104V, P104T is lower in THAP1 transcriptional activity: 2.16 for the first, 1.39 for the second.

Going from Q154M to Q154R, the THAP1 transcriptional activity falls from 1.17 to 0.653.

First: C67Q
Second: C67N
The THAP1 transcriptional activity of the first is higher: 0.239 for the first, 0.17 for the second.

First: C67D
Second: C67I
The THAP1 transcriptional activity of the first is lower: 0.135 for the first, 0.198 for the second.

First: C67P
Second: C67T
The THAP1 transcriptional activity of the first is lower: 0.13 for the first, 1.19 for the second.

First: V77Y
Second: N69T
The THAP1 transcriptional activity of the first is higher: 0.279 for the first, 0.226 for the second.

Compared with N69S, N69K is lower in THAP1 transcriptional activity: 0.193 for the first, 0.133 for the second.

Going from K89M to P86I, the THAP1 transcriptional activity rises from 0.476 to 2.01.

First: N44T
Second: N44S
The THAP1 transcriptional activity of the first is lower: 0.439 for the first, 0.494 for the second.

Compared with N44D, K64S is lower in THAP1 transcriptional activity: 1.16 for the first, 0.123 for the second.

Compared with K64I, K64F is lower in THAP1 transcriptional activity: 0.159 for the first, 0.102 for the second.

Compared with K64C, K64Y is lower in THAP1 transcriptional activity: 0.0975 for the first, 0.0778 for the second.

Going from K70P to K70M, the THAP1 transcriptional activity falls from 0.178 to 0.175.

First: Q151E
Second: L72S
The THAP1 transcriptional activity of the first is higher: 0.7 for the first, 0.092 for the second.

First: W36R
Second: Q124G
The THAP1 transcriptional activity of the first is lower: 0.107 for the first, 0.787 for the second.

Compared with M120W, M120P is higher in THAP1 transcriptional activity: 0.324 for the first, 1.25 for the second.

First: C83I
Second: C83T
The THAP1 transcriptional activity of the first is lower: 1.18 for the first, 1.67 for the second.

Compared with C83P, Q173V is higher in THAP1 transcriptional activity: 0.676 for the first, 1.27 for the second.

Compared with V40I, V40R is lower in THAP1 transcriptional activity: 1.6 for the first, 0.1 for the second.

Going from V40D to V40H, the THAP1 transcriptional activity rises from 0.0854 to 0.17.

Going from P47Q to P47T, the THAP1 transcriptional activity rises from 0.104 to 0.151.

Going from P121F to P121N, the THAP1 transcriptional activity rises from 0.115 to 0.457.

Compared with K24H, K24G is lower in THAP1 transcriptional activity: 0.345 for the first, 0.13 for the second.

First: K24L
Second: L32K
The THAP1 transcriptional activity of the first is lower: 0.156 for the first, 0.267 for the second.

Going from M143W to M143L, the THAP1 transcriptional activity rises from 0.719 to 0.725.

Going from L105N to L105S, the THAP1 transcriptional activity rises from 1.92 to 2.43.

First: F132N
Second: F132C
The THAP1 transcriptional activity of the first is higher: 0.635 for the first, 0.597 for the second.

Compared with L201C, R146F is lower in THAP1 transcriptional activity: 1.03 for the first, 0.489 for the second.

First: A115S
Second: A115E
The THAP1 transcriptional activity of the first is lower: 0.742 for the first, 1.47 for the second.

Compared with Q187W, Q187F is higher in THAP1 transcriptional activity: 0.568 for the first, 0.78 for the second.

Going from Q187R to K34L, the THAP1 transcriptional activity falls from 1.03 to 0.613.

Going from K34F to A213V, the THAP1 transcriptional activity rises from 0.281 to 0.455.

First: S6P
Second: E153I
The THAP1 transcriptional activity of the first is lower: 0.185 for the first, 0.393 for the second.

Going from E153W to K11S, the THAP1 transcriptional activity rises from 0.268 to 0.282.

First: K11M
Second: L82K
The THAP1 transcriptional activity of the first is lower: 0.124 for the first, 0.792 for the second.

First: L82Q
Second: E174L
The THAP1 transcriptional activity of the first is higher: 1.59 for the first, 1.03 for the second.

Going from E174D to E174T, the THAP1 transcriptional activity rises from 0.712 to 0.836.

First: K147V
Second: K147E
The THAP1 transcriptional activity of the first is lower: 0.383 for the first, 0.626 for the second.

Going from K49H to K49L, the THAP1 transcriptional activity rises from 0.0815 to 0.234.

Compared with K164N, K164V is lower in THAP1 transcriptional activity: 0.306 for the first, 0.218 for the second.

Compared with K164D, K164I is higher in THAP1 transcriptional activity: 0.173 for the first, 0.252 for the second.

Going from T79E to T79C, the THAP1 transcriptional activity falls from 0.254 to 0.183.

Compared with G197P, G197I is higher in THAP1 transcriptional activity: 0.913 for the first, 1.03 for the second.

First: F186W
Second: P212G
The THAP1 transcriptional activity of the first is higher: 1.1 for the first, 0.939 for the second.

First: P212C
Second: P212L
The THAP1 transcriptional activity of the first is lower: 0.673 for the first, 1.42 for the second.

Going from F81T to H150W, the THAP1 transcriptional activity rises from 0.207 to 0.976.

Compared with H150P, P78N is lower in THAP1 transcriptional activity: 0.317 for the first, 0.269 for the second.

Going from P78C to C133M, the THAP1 transcriptional activity rises from 0.419 to 0.928.

First: C133E
Second: K18C
The THAP1 transcriptional activity of the first is higher: 0.936 for the first, 0.238 for the second.

First: K18L
Second: L118R
The THAP1 transcriptional activity of the first is lower: 0.367 for the first, 1.19 for the second.

Compared with L118A, R42F is lower in THAP1 transcriptional activity: 0.723 for the first, 0.116 for the second.

Going from R42I to R42M, the THAP1 transcriptional activity falls from 0.181 to 0.0797.

Going from P60S to V131T, the THAP1 transcriptional activity falls from 0.985 to 0.276.

Going from V131M to F22T, the THAP1 transcriptional activity falls from 0.291 to 0.126.

Going from F22I to D92W, the THAP1 transcriptional activity rises from 0.178 to 0.658.

Compared with V139Y, V139M is higher in THAP1 transcriptional activity: 0.59 for the first, 1.22 for the second.

First: L71Q
Second: S31L
The THAP1 transcriptional activity of the first is lower: 0.432 for the first, 1.21 for the second.

Going from S31F to S31Q, the THAP1 transcriptional activity rises from 0.363 to 0.998.

First: S31K
Second: T138L
The THAP1 transcriptional activity of the first is higher: 1.13 for the first, 0.13 for the second.

Going from T138Y to Q168N, the THAP1 transcriptional activity rises from 0.424 to 0.781.

First: Q168C
Second: Q168L
The THAP1 transcriptional activity of the first is higher: 0.512 for the first, 0.433 for the second.

First: H57I
Second: I80F
The THAP1 transcriptional activity of the first is lower: 0.102 for the first, 0.463 for the second.

Going from C54K to C54T, the THAP1 transcriptional activity falls from 0.097 to 0.0761.

Going from K162G to T125I, the THAP1 transcriptional activity rises from 0.11 to 0.437.

Compared with T125G, T125Y is lower in THAP1 transcriptional activity: 0.666 for the first, 0.322 for the second.

Going from G117D to P30D, the THAP1 transcriptional activity falls from 0.481 to 0.254.

Going from P30E to P30M, the THAP1 transcriptional activity falls from 0.399 to 0.245.

Going from K161P to K161W, the THAP1 transcriptional activity rises from 0.172 to 0.242.

First: E178S
Second: E178L
The THAP1 transcriptional activity of the first is higher: 1.45 for the first, 1.02 for the second.

Going from E178P to E178H, the THAP1 transcriptional activity rises from 0.226 to 0.957.

Going from P96E to P96N, the THAP1 transcriptional activity rises from 0.84 to 2.72.

Going from P96F to P96T, the THAP1 transcriptional activity rises from 0.885 to 1.6.

First: K181G
Second: K181W
The THAP1 transcriptional activity of the first is higher: 0.53 for the first, 0.418 for the second.

Going from K181E to V209Q, the THAP1 transcriptional activity rises from 0.582 to 1.67.

Compared with V209F, I200A is higher in THAP1 transcriptional activity: 0.531 for the first, 0.558 for the second.

First: P103E
Second: P103V
The THAP1 transcriptional activity of the first is higher: 1.22 for the first, 1.04 for the second.

First: P103W
Second: P103K
The THAP1 transcriptional activity of the first is lower: 0.806 for the first, 1.31 for the second.

First: K46F
Second: K46N
The THAP1 transcriptional activity of the first is higher: 0.339 for the first, 0.295 for the second.

Going from P26K to P26H, the THAP1 transcriptional activity falls from 0.155 to 0.0688.

P26T gave a THAP1 transcriptional activity of 0.0945.
